B1: wild-type MTM1-B10 fusion protein [human] / wild-type MTMR12-GFP protein [human] (parent complex)
chain 1: MASASTSKYNSHSLENESIKRTSRDGVNRDLTEAVPRLPGETLITDKEVIYICPFNGPIKGRVYITNYRLYLRSLETDSSLILDVPLGVISRIEKMGGATSRGENSYGLDITCKDMRNLRFALKQEGHSRRDMFEILTRYAFPLAHSLPLFAFLNEEKFNVDGWTVYNPVEEYRRQGLPNHHWRITFINKCYELCDTYPALLVVPYRASDDDLRRVATFRSRNRIPVLSWIHPENKTVIVRCSQPLVGMSGKRNKDDEKYLDVIRETNKQISKLTIYDARPSVNAVANKATGGGYESDDAYHNAELFFLDIHNIHVMRESLKKVKDIVYPNVEESHWLSSLESTHWLEHIKLVLTGAIQVADKVSSGKSSVLVHCSDGWDRTAQLTSLAMLMLDSFYRSIEGFEILVQKEWISFGHKFASRIGHGDKNHTDADRSPIFLQFIDCVWQMSKQFPTAFEFNEQFLIIILDHLYSCRFGTFLFNCESARERQKVTERTVSLWSLINSNKEKFKNPFYTKEINRVLYPVASMRHLELWVNYYIRWNPRIKQQQPNPVEQRYMELLALRDEYIKRLEELQLANSAKLSDPPTSPSSPSQMMPHVQTHF
chain 2: MLGKGVVGGGGGTKAPKPSFVSYVRPEEIHTNEKEVTEKEVTLHLLPGEQLLCEASTVLKYVQEDSCQHGVYGRLVCTDFKIAFLGDDESALDNDETQFKNKVIGENDITLHCVDQIYGVFDEKKKTLFGQLKKYPEKLIIHCKDLRVFQFCLRYTKEEEVKRIVSGIIHHTQAPKLLKRLFLFSYATAAQNNTVTDPKNHTVMFDTLKDWCWELERTKGNMKYKAVSVNEGYKVCERLPAYFVVPTPLPEENVQRFQGHGIPIWCWSCHNGSALLKMSALPKEQDDGILQIQKSFLDGIYKTIHRPPYEIVKTEDLSSNFLSLQEIQTAYSKFKQLFLIDNSTEFWDTDIKWFSLLESSSWLDIIRRCLKKAIEITECMEAQNMNVLLLEENASDLCCLISSLVQLMMDPHCRTRIGFQSLIQKEWVMGGHCFLDRCNHLRQNDKEEVPVFLLFLDCVWQLVHQHPPAFEFTETYLTVLSDSLYIPIFSTFFFNSPHQKDTNMGREGQDTQSKPLNLLTVWDWSVQFEPKAQTLLKNPLYVEKPKLDKGQRKGMRFKHQRQLSLPLTQSKSSPKRGFFREETDHLIKNLLGKRISKLINSSDELQDNFREFYDSWHSKSTDYHGLLLPHIEGPEIKVWAQRYLRWIPEAQILGGGQVATLSKLLEMMEEVQSLQEKIDERHHSQQAPQAEAPCLLRNSARLSSLFPFALLQRHSSKPVLPTSGWKALGDEDDLAKREDEFVDLGDV

Variants of: B1
Assay: co-immunoprecipitation (anti-B10 IP, western blot quantification); overexpressed in Cos1 cells; IP with anti-B10 tag antibody; parent: 1; read off a plot

| Variant | response [AU] |
| --- | --- |
| chain 1 C375S | ~0.92 |
| chain 1 R69C | ~0.05 |
| chain 1 R241C | ~1 |
| chain 1 P205L | ~0.07 |
| chain 1 R184G | ~0.05 |

The next lines start with the values.

| response [AU] | Variant |
| --- | --- |
| ~0.05 | chain 1 V49F |
| ~0.92 | chain 1 R421Q |
